Data on two substances can be found in patent publication US20060147463A1.

For one assay, the target named is alcohol dehydrogenase. The experiment in a line: cell-based or functional assay.
For assay [1], the target named is carboxy-terminal truncated Hsp20 (Babesia bovis) (Babesia bovis). The experiment in a line: size exclusion FPLC (Superose 6) (self-association). Background: SEC sorts molecules by how far they enter the pores of the column.

For “His-tagged Hsp20 from Babesia bovis (full length)”, in the assay with alcohol dehydrogenase, the molar ratio of greatest reduction in light scattering at time infinity (molar ratio Hsp20 to ADH) turned out to be 2 and the reduction in light scattering of ADH at 58° C., 60 minutes, molar ratio 2:1 Hsp20:ADH worked out at 2.3 fold.

With “carboxy-terminal truncated Hsp20 (Babesia bovis)”, in assay [1], the percent of protein as dimer came to 42%.
